From the supplement of paper PMC12042874
± gives the uncertainty stated by the source.

Assay: amyloid nucleation score (Sup35N fusion, yeast selection) (log enrichment); library NNK2; higher = more nucleation; inactive = no reads after selection
Summary of the method: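 After 24 hours of induction with 100 μM copper sulfate, psi-negative yeast expressing peptides of 20 random codons fused to Sup35N were grown for 7 days at 30°C on medium lacking adenine and uracil. Input and output plasmid inserts were sequenced with Illumina, and sequences with under 100 input reads were discarded. Scores for nucleation are the DiMSum log enrichment of output over input reads, centred on the mode score of non-aggregating sequences.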

| Substance | amyloid nucleation score |
| --- | --- |
| NTRASSKGIDMGYCQYH | 0.066 ± 0.49 |
| SNYVY | -0.161 ± 1.1 |
| PKKSVGKLNIILEVLPSTAV | -0.666 ± 0.53 |
| TMGYDSSTVTVFGGSMFLRL | 2.56 ± 0.2 |
| IEHIRFTSSSAVVRRCGNC | 6.11 ± 0.066 |
| IVVSKVLLIWFPLLRRGANL | 0.159 ± 0.49 |
| RVLSIRSFP | 1.64 ± 0.13 |
| VNVPYIRMIDHLLTYTQL | -0.081 ± 1.1 |
| SYYFLLLFVQT | -0.017 ± 0.76 |
| SIVSTGFVRDLNRTRCYSGG | 0.158 ± 0.56 |
| WVIFSLVKWCMFSNDVVWVA | -0.944 ± 0.34 |
| CINRVRG | -0.398 ± 0.76 |
| FCMRNGVYLEYFVGLMLFCA | -0.566 ± 0.63 |
| RIRVIIVPALVLA | inactive |
| TRFGPPVHSKLCPPAMWPGW | 0.691 ± 0.23 |
| SDVELWRYG | 2.55 ± 0.065 |
| LNNGCCMSLPVPTRPDDRDK | 0.356 ± 0.8 |
| RCCSVAYTIGLLTRRSLATG | 0.451 ± 0.24 |
| QLFRCGRWGLLFSAAFFYLV | 0.264 ± 0.8 |
| TNWQGQRIRYAKDLGGPCGL | 0.506 ± 0.35 |
| VKWTVHYNAVAKRIRLMIVY | 0.437 ± 0.8 |
| GYCQVKSGCCSGEECCFWMI | 3.68 ± 0.099 |
| KGIQYSTLVTRRFWMW | 3.68 ± 0.088 |
| TQLLQHGGGFRSRISSRLGR | 1.21 ± 0.41 |
| ARFSVILNSIYRFSYLCRRL | inactive |

| Substance | amyloid nucleation score |
| --- | --- |
| VSIRDVVGQYSINRVICRSY | -0.774 ± 0.54 |
| STTYFDVCMVGFWYNFSTWG | -0.994 ± 1.1 |
| CISMDLIVLNSFMGKPLPPP | 5.39 ± 0.057 |
| GYGWKLQMTGGESCVGSHLR | 0.388 ± 0.66 |
| ITFYGTF | inactive |
| NLHATWTLDESDFLYQPCLS | 0.102 ± 0.2 |
| ALGHR | -0.079 ± 0.45 |
| DDYVWCSYRLMFKSSHEALL | -1.24 ± 1.1 |
| LQDLTWRLCFKVWCDHSPEN | 4.08 ± 0.091 |
| RTHWELRKNLLCPFVDKIY | -1.2 ± 0.78 |
| NVVTG | -0.11 ± 0.42 |
| GLQFSATISYERPVWGGVLR | 4.64 ± 0.066 |
| FLMVVVGNVLPLSKCYALWY | -0.007 ± 0.55 |
| WHQLKSTPLHFYSINTASFN | 0.123 ± 0.6 |
| PGIVRGPYYGNMVIFLLKMF | 2.89 ± 0.19 |
| FPDSSEISHGAVHLLQVCPL | -0.313 ± 0.33 |
| TTLYGGAFIGIGYVGRHTEN | 3.21 ± 0.15 |
| KSIGTAGFDN | -0.846 ± 0.42 |
| FVCFPRSVAQRDDSSGVGGN | -0.121 ± 1.1 |
| LYVQLQMEVVGPGVRLTGSL | 3.19 ± 0.077 |
| WLSSGAVRVKGCGFYNSRYN | inactive |
| MYNENRLLSSFNSVCCMLWG | 9.787 ± 0.078 |
| HREWG | 0.668 ± 0.46 |
| RKVWLALVIFVCGCFIHYNG | -0.338 ± 0.64 |
| TYSVLRHFRRES | 0.589 ± 0.31 |

| Substance | amyloid nucleation score |
| --- | --- |
| NTWDMLYGIWFSSLLQALLN | inactive |
| PDSRPIVRRSANCIWSNSWF | 1.38 ± 0.1 |
| ETGSIVVKMLPSRWGSLRLV | 3.19 ± 0.11 |
| GGQEIAYILTSVSSLSNPMW | 3.24 ± 0.1 |
| CANIMMKSKVYKFNERRSVK | -0.873 ± 0.62 |
| SFINGILRFLSRRCNCIWLL | 0.14 ± 0.5 |
| TSIYLVLGYIFESATRLF | 0.144 ± 0.79 |
| LTPIMAEKVLPYICQLLRGS | -0.228 ± 0.55 |
| GSKRCSFRGLCIIYSVSMCS | 6.996 ± 0.044 |
| LLYTCFGVREVQMVTYRNAS | 4 ± 0.063 |
| THLHCCYRETISDP | 0.175 ± 0.33 |
| HYRWMSHADIMVFHNLCRYN | inactive |
| GKSYPPHLHHDNNKAYRVLP | -0.178 ± 1.1 |
| LYQRNRLWGRKAWNTLWFSL | -0.506 ± 0.42 |
| HGRKNFSVGVVVVLWLRLFV | 5.63 ± 0.081 |
| KWGVAFNCSYNGVDNVNFWC | 6.807 ± 0.058 |
| NSQTYTGCAVGYVLVNVMGL | 6.474 ± 0.033 |
| VEGRYAPKRSYVTPGWDV | -0.05 ± 0.55 |
| VSSVRCNRVAYNPASGRGRR | -0.124 ± 0.55 |
| SREIWRLYDI | -0.124 ± 0.8 |
| QCVTSCCSSHEWHSTRQMIF | -0.502 ± 0.46 |
| WYIRPSKTCEVSFGYPRRSW | -0.891 ± 1.1 |
| LVRPSGANPSCWAIINRGEI | 10.63 ± 0.079 |
| FNRPAQNGLAKYWYWIQ | 0.142 ± 0.42 |
| FYCIFNFDIFV | 6.286 ± 0.052 |

| Substance | amyloid nucleation score |
| --- | --- |
| FYMYFPNRAYWVGLGLTPML | -0.365 ± 0.61 |
| QVSSTST | 0.592 ± 0.35 |
| LGWQPNMWLISFISVSY | -0.81 ± 0.64 |
| AVRLSEV | 0.421 ± 0.38 |
| HQVSGSDWPRSDYLRCLTIA | 1.82 ± 0.19 |
| NLAGKGAITDRFSQVRSGQS | 1.4 ± 0.25 |
| YFWSRLRFVCRDRSGKNYCS | -0.138 ± 0.76 |
| YADKSKTCNYFSQLP | 0.016 ± 1.1 |
| LLCGRYGMECFTRA | inactive |
| MVGNSNAPARVLCTVSKFGV | 0.587 ± 0.33 |
| SLMLGVYHLFTCGTQTRCYS | -0.71 ± 1 |
| KNYHCTLSWLWFMACFSGIP | 2.61 ± 0.15 |
| VLAAT | -0.815 ± 0.55 |
| WSIPLSLMQSIRSCYNELIN | 3.67 ± 0.11 |
| HVHCEIGFVRLSTRVGRWFG | 6.64 ± 0.079 |
| SISSVLCYWYKNHKNDIVSG | inactive |
| GGEIESIGFRLGCLSRRSES | -0.383 ± 0.49 |
| IFYIVGYFAHLMMWNTRRDG | inactive |
| TCGTVSNSRASRQFESSSNA | 0.633 ± 0.18 |
| SNIVSWVIEDGVRKC | 4.5 ± 0.049 |
| MLIQVCALEGRYEVTQCVGG | 1.82 ± 0.12 |
| YHHIV | inactive |
| TFLSGLCIAACSIMGFNQSS | -1.6 ± 0.78 |
| TKICWGSCRHLDLAFFLFLY | inactive |
| VPFGNESWLYTR | -1.06 ± 0.64 |

| Substance | amyloid nucleation score |
| --- | --- |
| VFCYRSDMSGTSSGGGYQM | -0.178 ± 0.29 |
| RYTYRHNVFTNMSLVYNTMP | 2.88 ± 0.11 |
| STFDPCLRHPLIMCFYSVCA | 0.014 ± 0.46 |
| VQICLGNPNWGNPANRSFVV | 1.95 ± 0.2 |
| PVSALAVFRCLMYSCFCGDL | 6.172 ± 0.035 |
| RDLSLNFIHPLRFGY | inactive |
| GVARESRAGS | 4.96 ± 0.066 |
| LVGFALGSDTLISRY | -0.221 ± 1.1 |
| NFRSVFFAMCRSCVF | -0.145 ± 0.25 |
| SIFMYMYKSFFMGNYINGGM | 1.03 ± 0.27 |
| GGCGLH | 0.261 ± 0.4 |
| GDDWSADVVI | -0.718 ± 0.55 |
| ANERCGTLTMRSEAYHVRTW | 0.808 ± 0.28 |
| QTNST | 0.526 ± 0.57 |
| YKRHVGLRRNTLRQGYLLWF | -0.547 ± 1.1 |
| WVVLLFKCFFEVLMLPLKVI | -0.29 ± 0.38 |
| LTVTDG | 0.104 ± 0.37 |
| EFRWYNFLWY | -0.618 ± 1.1 |
| TCARSVYDNLSLINLTRG | 1.73 ± 0.1 |
| WLWLND | -0.661 ± 1.1 |
| LSCLK | -0.344 ± 0.28 |
| CGVMKNYDESKTYGLGLG | 3.51 ± 0.1 |
| LLMQYPSLVMVAGRFLVANL | -0.082 ± 0.5 |
| NATLSSFYSLGNEMHSGHSV | -0.209 ± 0.48 |
| YQYRDLLVIVRSTMKSNVSV | 1.85 ± 0.1 |

| Substance | amyloid nucleation score |
| --- | --- |
| QLVLQVNRYVYRIMSTLTLS | 0.848 ± 0.52 |
| CSITRLGSVHYLSRYIFV | 3.74 ± 0.083 |
| WFACSLVAYRVLSSGTKAVM | 0.204 ± 0.34 |
| VSITISTTCSNKGS | 1.29 ± 0.22 |
| YDVRMSKMFAYTLSSEC | 0.203 ± 0.53 |
| PFNQDMLTIQIGTSIISRSS | -0.172 ± 1.1 |
| YVNRVSCKVASRNCHHNGKS | -0.235 ± 1.1 |
| TGSVREYCGEVPWRLCDDRV | 0.244 ± 0.62 |
| GRTGFFYLGAKYVSHEGAGK | inactive |
| VSLMFSGVIWAIWLMLFGVG | 1.13 ± 0.61 |
| LRVKKYTDFHELEVGLFFWL | inactive |
| PYTSSLLLQDRVLARGAYCR | 1.25 ± 0.36 |
| FLGLYKRYGVEVGLYMLILV | -0.742 ± 0.24 |
| MACFECFTGISACNLNMRG | 8.574 ± 0.026 |
| RGLCVGSSARFCVY | 0.691 ± 0.6 |
| WNIVVSYNDLFV | -1.07 ± 0.76 |
| LSVSPGSRDLREPEDSFMWS | -0.05 ± 0.3 |
| GLGAFSSP | 0.247 ± 0.46 |
| AVINPPKHVVCCFD | -0.189 ± 0.23 |
| LDILIAQALEVFSDQYCNY | -0.992 ± 0.42 |
| TMGKCITIGPAFIHNT | 1.51 ± 0.32 |
| VYAFLYFWGFRHGVVYV | -0.099 ± 0.44 |
| SLHFCQTVFFYMQILSMLAC | inactive |
| FSMDHDDRSSCKAWHRSEFE | 1 ± 0.2 |
| NVRFY | inactive |

| Substance | amyloid nucleation score |
| --- | --- |
| ATSTITNYGLPNRPCVSYMF | -0.043 ± 0.32 |
| LTTLKFRFFLIIKRSSAGCC | 0.461 ± 0.8 |
| GGLDLRIMR | 2.41 ± 0.081 |
| ANAKIYGNMEALETGMRL | 0.553 ± 0.57 |
| LCFYK | 0.388 ± 0.32 |
| AQLVGVCFRRFCQLSTSLCY | -1.18 ± 0.64 |
| DTNVCHIYFGFELLSRFFCN | 0.252 ± 0.36 |
| RFICYSHTFTGSMLSISIR | 8.061 ± 0.077 |
| LWAGDLFDRGP | 0.709 ± 0.66 |
| PSDSECISCSCLDRWYRVFE | 2.94 ± 0.12 |
| ELQRKNTGLKVDLKAHIHRF | 5.37 ± 0.063 |
| LYRVLNTVHVSHLQTIRP | -0.064 ± 1.1 |
| VCVFEARVFSKLFVY | inactive |
| AAIIISLSYMI | 2.23 ± 0.075 |
| DRGTGNRGSCDRSYLDSGKV | 0.963 ± 0.29 |
| VYTSYGSRSFTFNRFNAWTD | -0.97 ± 0.78 |
| VNLGSGAVEPTTLRKFGLTR | 4.28 ± 0.06 |
| GVYIRVVSHEWVLFW | inactive |
| KGDGNRSDTDVFITHIFMYY | 6.336 ± 0.048 |
